Laboratory results from patent publication US20230331852A1 (OSE IMMUNOTHERAPEUTICS, published 2023).

Tests used:
[1] = biological target: T1, Fc-CLEC1 labelled with Alexa Fluor 488 (human, Alexa Fluor 488 label (sites not given)); assay: FACS competition: blocks Fc-CLEC1-A488 (10 nM) binding to CLEC-1 ligand on UV-treated PBMC; % binding
T1 construct: also called Fc-CLEC1-A488; Alexa488-Fc-Clec-1
T1 chain: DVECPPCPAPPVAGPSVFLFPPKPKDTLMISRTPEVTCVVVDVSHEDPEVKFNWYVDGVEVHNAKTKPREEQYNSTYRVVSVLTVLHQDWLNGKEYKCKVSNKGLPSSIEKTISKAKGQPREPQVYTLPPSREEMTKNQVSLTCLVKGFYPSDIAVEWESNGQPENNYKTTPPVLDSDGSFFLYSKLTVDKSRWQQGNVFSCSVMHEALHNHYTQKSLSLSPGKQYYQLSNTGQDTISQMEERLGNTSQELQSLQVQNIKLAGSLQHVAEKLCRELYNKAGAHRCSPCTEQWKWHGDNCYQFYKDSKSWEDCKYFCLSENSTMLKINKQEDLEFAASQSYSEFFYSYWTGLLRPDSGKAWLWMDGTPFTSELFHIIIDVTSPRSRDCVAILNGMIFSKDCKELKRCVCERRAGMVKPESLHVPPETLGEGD
Experimental: (§1) Competition were also measured on UV pre-treated pro-apoptotic human PBMCs, which can also express the ligand after a treatment under UV radiation for 18 hours. After UV treatment, cells were first washed in cold-PSE and then blocked during 30 min at room temperature with human Fc-block 50-fold diluted in PSE, and then replaced on ice. Purified anti-Clec antibodies at different concentrations were pre-incubated with Alexa488-Fc-Clec-1 in PSE at different concentrations for 15 min at room temperature. Pre-incubated mixes were then incubated on Fc-blocked/SAB (#34005-100, Invitrogen, Illkirch, France) pro-apoptotic PBMCs for 30 min on ice. Binding on cells were then fixed by PFA 2% in cold PBS for 10 min on ice and analyzed on CytoFlex cytofluorometer (Beckman Coulter France, Villepinte).
(§2) Methods. To measure competition on permeabilised Raji (CytoFix/cytoperm kit, BD Biosciences) which expressed CLEC1 ligand, Fc-CLEC1-labelled A488 which bound specifically to permeabilised Raji was used. To measure competition, Fc-CLEC1 labelled A488 at 10 nM or 20 nM was mixed with mouse anti-hCLEC1 at different concentrations for 15 min at RT then added on these cells for 30 min at 4° C. […] To measure competition on PMBC, we used human PBMC pre-treated by UV for 18 h to obtain apoptotic PBMC, which expressed CLEC1 ligand. Fc-CLEC1-labelled A488 bound specifically apoptotic UV-treated PBMC. To measure competition, Fc-CLEC1 labelled A488 at 10 nM was mixed with mouse anti-hCLEC1 at different concentrations for 15 min at RT then added on these cells for 30 min at 4° C.

[2] = biological target: T2, human CLEC-1A expressed on the cell membrane (human, UniProt Q8NC01 1-280); assay: flow cytometry on U266 cells, PE anti-human IgG; median fluorescence
T2 construct: Endogenous on human U266 myeloma cells, on monocyte-derived TGFb-DC and macrophages; on CHO cells after transduction with a Clec-1 expressing lentivirus; also called U266 CLEC1; CLEC-1A on U266 cells
T2 sequence: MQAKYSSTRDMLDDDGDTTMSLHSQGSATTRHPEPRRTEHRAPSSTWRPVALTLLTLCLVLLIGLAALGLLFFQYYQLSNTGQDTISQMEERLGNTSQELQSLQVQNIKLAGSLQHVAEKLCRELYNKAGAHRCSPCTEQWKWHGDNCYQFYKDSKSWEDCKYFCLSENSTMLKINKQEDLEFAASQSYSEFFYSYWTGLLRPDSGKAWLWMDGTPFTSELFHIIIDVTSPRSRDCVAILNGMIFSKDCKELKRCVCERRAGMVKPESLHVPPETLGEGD
Experimental: (§3) Method: To measure binding of anti-CLEC1 on human U266 cell lines (pre-blocked with Fcblock to blocking FcR), antibodies at different concentrations were incubated for 30 min at 4° C., and washed before stained 30 min at 4° C. with PE-labelled anti-human IgG (Biolegend; reference 409304). Samples were analyzed on Cytoflex cytofluorometer (Beckman Coulter). The MFI of anti-CLEC1 was compared between all anti-CLEC1 antibodies and percentage of stained cells was analysed in all conditions.

[3] = biological target: T2, human CLEC-1A expressed on the cell …; assay: flow cytometry on U266 cells, PE anti-human IgG; % positive cells
Experimental: as §3

[4] = biological target: T3, recombinant human CLEC-1 protein with His Tag (#1704-CL R&D Systems) (human, UniProt Q8NC01 74-280); assay: ELISA on immobilised His-CLEC1 (from FIGURE 12)
T3 construct: Bought protein; also called His-CLEC1; His Clec-1; not shown: His tag
T3 sequence: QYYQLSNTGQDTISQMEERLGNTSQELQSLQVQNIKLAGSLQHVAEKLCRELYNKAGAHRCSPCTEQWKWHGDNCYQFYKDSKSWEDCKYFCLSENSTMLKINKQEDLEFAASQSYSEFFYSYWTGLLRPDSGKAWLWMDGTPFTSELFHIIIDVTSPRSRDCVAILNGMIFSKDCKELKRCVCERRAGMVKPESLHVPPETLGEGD
Experimental: Method: The binding activity of the anti-hCLEC1 antibodies was assessed by ELISA (Enzyme-linked immunosorbent assay). […] A second ELISA assays was performed, like above, with immobilization of CLEC1-Fc (OSE Immunotherapeutics) at 2 μg/ml. A third ELISA assays was performed to see the cross-reactivity with mouse CLEC1. Like above, ELISA was made with immobilization of mouse Fc-CLEC1 (OSE Immunotherapeutics) at 2 μg/ml in carbonate buffer instead of His-Clec. Purified antibodies were added at different concentrations to measure binding. […] Control antibody is a commercial anti-CLEC-1A antibody.

[5] = biological target: T3, recombinant human CLEC-1 protein with …; assay: BLI (Blitz), CLEC1-His on Ni-NTA biosensor, antibody at 20 ug/mL; chimeric antibody, FIG. 17
Experimental: Analysis was performed with a BLItz System (Fortébio, #C22-2 No 61010-1, Molecular Devices, San José, USA).
The affinity of the anti-hCLEC1 antibodies, was measured with Blitz system (Forté Bio, C22-2 No 61010-1).

[6] = biological target: T1, Fc-CLEC1 labelled with Alexa Fluor 488; assay: FACS competition: blocks Fc-CLEC1-A488 (10 nM) binding to CLEC-1 ligand on UV-treated PBMC
Experimental: as §1, §2

B1: chimeric anti-CLEC-1A antibody 14H9 (antibody, human IgG4 S228P, kappa, V domains shown)
VH: QVQLKESGPGLVAPSQSLSITCTISGFSLTTYGIHWVRQPPGKGLEWLVVIWSDGSTIYNSALKSRLSISKDNSKSQVFLKMNSLQTDDTAIYYCARHGGYYNYFDYWGQGTTLTVSS
VL: DIQMNQSPSSLSASLGDTITITCHASQNINVWLSWYQQKPGNIPKLLIYKASNLHTGVPSRFSGSGSGTTFTLTIDSLQPEDIATYYCQQGQSYWTFGGGTKLEIKR
notes: also called 14H9chim; 14H9-VHwt-FcG4m / 14H9-VLwt-CLhk
IC50 (read off the curve) [1]: ~0.7 µg/mL
EC50 (read off the curve) [2]: ~0.06 µg/mL
EC50 (read off the curve) [3]: ~0.06 µg/mL
EC50 [4]: 0.148 µg/mL
Kd [5]: ~10 nM
IC50 [6]: 0.873 µg/mL
